Like-named read-outs stand apart in the source and are kept apart here.

Test [1] has as its target T1, recombinant hIL1RAP Domain1+2+3 (aa21-367) (human, UniProt Q9NPH3 21-367).
T1 construct: Numbering on Uniprot Q9NPH3
T1 sequence (looked up): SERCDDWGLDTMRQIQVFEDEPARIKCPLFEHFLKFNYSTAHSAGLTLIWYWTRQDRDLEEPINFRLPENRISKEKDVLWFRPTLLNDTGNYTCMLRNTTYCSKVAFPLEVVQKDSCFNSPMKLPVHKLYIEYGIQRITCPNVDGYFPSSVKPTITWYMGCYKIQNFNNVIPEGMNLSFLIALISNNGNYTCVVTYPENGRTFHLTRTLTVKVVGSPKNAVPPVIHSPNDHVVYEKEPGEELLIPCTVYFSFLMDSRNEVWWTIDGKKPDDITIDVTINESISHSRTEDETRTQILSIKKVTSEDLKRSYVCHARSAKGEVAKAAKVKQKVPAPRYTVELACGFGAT
The experiment in a line: BLI (BLItz), antibody on Protein A biosensor, hIL1RAP (21-367) in solution. As to the method:
(§1) Affinity measurements were done on BLItz™ Label-Free Protein Analysis System from ForteBio, using the Basic Kinetics module in the BLItz Pro 1.3.1.3 software from Molecular Devices. Protein A biosensors were hydrated in blocking buffer (PBS, 0.5% BSA, 0.05% Tween 20, pH 7.4) for minimum 10 min at room temperature before coating. Protein A biosensors were coated with antibodies by dipping the biosensors in 200 μl of antibody solution (10 μg/ml in blocking buffer) for 30 min at room temperature. The sensors were then incubated in 200 μl blocking buffer for at least 10 min before use. […] The baseline was made in blocking buffer with a duration time of 30 sec. Association was made for 120 sec in hIL1RAP followed by 120 sec dissociation in blocking buffer.
Affinity measurement results are shown in Table 4 for chimeric 48D2, as well as for humanized 48D2 variant VH5:VL4 (see Example 11) and for humanized and de-immunized 48D2 variant VH5.GL:VL4 (see Example 13). kₐ is the association rate constant, for characterization of the antibody binding to the target, kd is the dissociation rate constant, for characterization of the antibody dissociation from the target, and KD is the equilibrium dissociation constant between the antibody and its antigen, the ratio of kd/kₐ. […] The lower the KD value (lower concentration), the higher the affinity.

Test [2] addresses T1, recombinant hIL1RAP Domain1+2+3 …. The test can be described thus: indirect ELISA on coated IL1RAP, goat anti-human antibody-alkaline phosphatase, absorbance at 405 nm. On the technique in general: In an ELISA, binding on a coated surface is turned into a signal by an enzyme label.
The target in test [3] is T2, recombinant mf IL1RAP aa21-367 (cynomolgus monkey (Macaca fascicularis), UniProt A0A2K5X5J5 21-367).
T2 construct: also called cynomolgus monkey IL1RAP; cyno IL1RAP
T2 sequence: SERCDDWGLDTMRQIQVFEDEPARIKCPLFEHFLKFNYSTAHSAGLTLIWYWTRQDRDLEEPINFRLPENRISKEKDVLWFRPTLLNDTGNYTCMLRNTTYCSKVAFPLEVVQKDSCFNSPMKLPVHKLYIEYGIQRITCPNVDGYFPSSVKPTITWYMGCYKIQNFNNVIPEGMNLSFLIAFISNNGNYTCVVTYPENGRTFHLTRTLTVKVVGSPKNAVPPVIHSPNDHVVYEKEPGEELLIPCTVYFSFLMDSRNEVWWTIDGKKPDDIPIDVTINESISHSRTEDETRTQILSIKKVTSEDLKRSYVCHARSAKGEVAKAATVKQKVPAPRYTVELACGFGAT
Described as above.

Test [4] deals with T3, rat IL1RAP (rat (Rattus norvegicus), UniProt Q63621 21-367, limits assumed).
T3 construct: also called rnIL1RAP
T3 sequence (looked up): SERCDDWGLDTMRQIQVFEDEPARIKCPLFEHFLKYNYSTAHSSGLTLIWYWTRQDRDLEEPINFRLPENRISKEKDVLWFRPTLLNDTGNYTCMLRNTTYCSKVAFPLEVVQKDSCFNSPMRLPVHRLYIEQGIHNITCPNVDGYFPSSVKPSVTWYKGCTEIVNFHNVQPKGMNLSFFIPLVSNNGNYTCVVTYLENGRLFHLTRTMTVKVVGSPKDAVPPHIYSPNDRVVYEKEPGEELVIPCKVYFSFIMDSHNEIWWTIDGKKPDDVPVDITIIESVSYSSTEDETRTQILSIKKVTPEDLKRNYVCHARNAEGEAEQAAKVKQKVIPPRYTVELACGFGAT
The test is described as above.

The next test addresses T4, pig IL1RAP (pig (Sus scrofa), UniProt A0A287B9B9 21-357).
T4 construct: also called ssIL1RAP
Described as above.

In test [5] the target is T5, mouse IL1RAP (mouse (Mus musculus), UniProt Q61730 21-367, limits assumed).
T5 construct: Coated ortholog in the cross reactivity ELISA; also called mIL1RAP; murine IL1RAP
T5 sequence (looked up): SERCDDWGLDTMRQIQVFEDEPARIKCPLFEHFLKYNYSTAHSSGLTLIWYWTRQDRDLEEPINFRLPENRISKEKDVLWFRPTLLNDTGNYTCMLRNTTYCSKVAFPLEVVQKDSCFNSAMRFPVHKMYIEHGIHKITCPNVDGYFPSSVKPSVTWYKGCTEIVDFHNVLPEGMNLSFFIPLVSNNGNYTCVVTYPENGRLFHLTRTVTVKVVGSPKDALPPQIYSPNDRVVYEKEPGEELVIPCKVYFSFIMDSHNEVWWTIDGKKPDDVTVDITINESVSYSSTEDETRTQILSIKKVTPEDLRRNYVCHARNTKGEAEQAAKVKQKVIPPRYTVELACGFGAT
The test is described as above.

The target in test [6] is T6, human IL1RAP on the cell surface (human, UniProt Q9NPH3 21-570).
T6 sequence (looked up): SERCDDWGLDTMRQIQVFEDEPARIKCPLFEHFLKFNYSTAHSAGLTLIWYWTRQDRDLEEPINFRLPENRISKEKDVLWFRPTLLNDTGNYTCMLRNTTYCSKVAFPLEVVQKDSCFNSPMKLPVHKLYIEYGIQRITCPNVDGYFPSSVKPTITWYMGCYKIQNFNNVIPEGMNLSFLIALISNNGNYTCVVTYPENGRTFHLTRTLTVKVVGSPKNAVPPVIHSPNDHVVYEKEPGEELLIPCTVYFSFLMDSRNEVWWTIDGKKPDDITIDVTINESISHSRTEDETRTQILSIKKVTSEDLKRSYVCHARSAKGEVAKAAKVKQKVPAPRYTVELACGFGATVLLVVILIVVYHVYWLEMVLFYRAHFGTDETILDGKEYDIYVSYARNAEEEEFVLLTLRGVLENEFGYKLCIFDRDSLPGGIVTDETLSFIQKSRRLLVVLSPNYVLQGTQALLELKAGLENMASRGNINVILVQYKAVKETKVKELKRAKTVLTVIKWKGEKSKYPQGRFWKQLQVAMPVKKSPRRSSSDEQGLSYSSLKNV
The test can be described thus: cell-based or functional assay.

Test [7] deals with T6, human IL1RAP on the cell surface. The experiment in a line: cell-based or functional assay. This is another data set of the same source.
In test [8] the target is T1, recombinant hIL1RAP Domain1+2+3 …. The experiment in a line: bio-layer interferometry, human IL1RAP. The procedure: as §1
KD values for affinity towards human IL1RAP are shown in Table 17 for the de-immunized h48D2 variants. Affinity was measured using bio-layer interferometry. […] See also Table 4 for a direct comparison of 48D2, humanized 48D2, and de-immunized h48D2.
For orientation: BLI is a label-free optical method that tracks binding on a fibre tip over time.

Test [9] has as its target T3, rat IL1RAP. The test can be described thus: indirect ELISA on coated IL1RAP, goat anti-human antibody-alkaline phosphatase, absorbance at 405 nm. As to the method: (§2) Microtiter plate wells were coated with IL1RAP orthologs (Mus musculus, Rattus norvegicus, Macaca fascicularis (Mf, synonymous to cynomolgus monkey), Oryctolagus cuniculus, Canis lupus familiaris, Sus scrofa) and incubated for 1 hour at 37° C. Plates were washed followed by a blocking step. After 1 hour incubation at room temperature on agitation, the plates were washed again. The antibody was diluted in fourfold serial dilution, ranging from 4000 ng/ml to 0.24 ng/ml, in ELISA blocking solution, and then transferred to the ELISA plate. Plates were incubated at 37° C. in 30 min on agitation and then washed. Goat Anti-Human antibody conjugated to Alkaline Phosphatase was added and incubated 30 min at 37° C. on agitation. The plates were washed followed by addition of substrate (4-Nitrophenyl phosphate disodium salt hexahydrate). The plates were thereafter incubated at room temperature on agitation and absorbance at 405 nm measured consecutively for 50 min. Absorbance at 0 min was taken as background signal.
(§3) The antibody is added in increasing concentrations and absorbance at 405 nm is used to detect binding of the antibody to IL1RAP orthologues. 48D2 is cross reactive to IL1RAP from human, cynomolgus monkey (cyno) and pig, but has no cross reactivity to IL1RAP from mouse, rat, rabbit or dog (FIG. 14 and Table 7).
This is another data set of the same source.

The target of test [10] is T5, mouse IL1RAP. The description is as above. As to the method: as §2, §3
The source holds these as a separate data set.

For test [11], the target named is T6, human IL1RAP on the cell surface. The experiment in a line: flow cytometry on SKMEL-5 cells, Alexa488 anti-human IgG secondary. As to the method: FIG. 12: Dose-dependent binding of chimeric 48D2 to cell membrane IL1RAP Chimeric 48D2 or hIgG1 (hIg=human immunoglobulin) isotype control antibody was added to SKMEL-5 cells in increasing concentrations and extracellular binding was analyzed by flow cytometry. Chimeric 48D2 specifically bound IL1RAP on the cell membrane in a dose-dependent manner and with higher mean fluorescent intensity (MFI) compared to the hIgG1 isotype control antibody.
The malignant melanoma (or malign melanoma) cell line SKMEL-5, which expresses IL1RAP on the cell surface, was used for the analysis. SKMEL-5 cells were cultured according to standard procedures. 5×10⁴ SKMEL-5 cells were blocked with human Fc block and then stained with 8-step serial dilutions (100 μg/ml-0.03 μg/ml) of chimeric 48D2 or isotype control antibody. Following secondary staining using Alexa488-conjugated anti-human IgG antibody, 10000 cells/sample were analyzed on a CytoFlex (Beckman Coulter). HTB183 cells expressing low levels of surface IL1RAP were used as negative controls.
In general terms: Flow cytometry measures light scatter and fluorescence of single cells or particles in a stream.

For test [12] the target is unchanged. The experiment in a line: cell-based or functional assay. This is another data set of the same source.

T4 sequence (A0A287B9B9 entry or part of it limits assumed): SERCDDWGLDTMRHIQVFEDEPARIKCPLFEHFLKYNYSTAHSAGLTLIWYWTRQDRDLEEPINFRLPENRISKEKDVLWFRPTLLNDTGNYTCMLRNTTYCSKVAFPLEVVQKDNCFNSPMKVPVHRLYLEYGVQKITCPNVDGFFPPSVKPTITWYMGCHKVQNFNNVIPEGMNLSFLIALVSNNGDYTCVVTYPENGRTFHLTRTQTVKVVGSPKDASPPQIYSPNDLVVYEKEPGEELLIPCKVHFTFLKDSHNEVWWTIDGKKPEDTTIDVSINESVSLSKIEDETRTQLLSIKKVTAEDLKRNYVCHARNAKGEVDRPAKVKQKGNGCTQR

B1: h48D2 VH5.GL:VL4 (antibody, human IgG1, kappa, L234A L235A, V domains shown)
VH: QEQLEESGGGLVKPGGTLSLTCTVSGPSLSHFDITWIRQPPGKGLEWIGTISPGVSTYYASWAKSRVTISVDTSLNTVSLKLSSVTAADTATYFCARGGVGSSWKAFDLWGPGTLVTISS
VL: ELVMTQSPSSVSASVGDRVTITCQASESISTALAWYQQKPGKAPKLLIYKASTLPSGVPSRFSGSGSGTDFTLTINSLQPEDFATYYCQQGFSSGNVHNAFGGGTKVEIKR
notes: Humanized and de-immunized; also called VL4:VH5.GL; 48D2 variant VH5.GL:VL4
B1: in test [1], the Kd (in general, the equilibrium constant for the complex coming apart) came out at 2.53 nM; the koff (usually the first-order rate constant of dissociation) came to 0.000197 s⁻¹; the kon (commonly the second-order rate constant of association) was 78000 M⁻¹ s⁻¹. The half-maximal effective concentration (EC50 (read off the curve)) (in general, the concentration giving half of the maximal effect) in test [2] was about 0.05 µg/mL. For the same molecule, the “EC50 (read off the curve)” value in test [3] was about 0.05 µg/mL. Besides, the binding result with rat IL1RAP [4] was “no binding (tested: 4000 ng/mL)”. Moreover, the “EC50 (read off the curve)” value in the test with pig IL1RAP was about 0.05 µg/mL. Besides, the binding result with mouse IL1RAP [5] was “no binding (tested: 4000 ng/mL)”. In [6], the “IC50 of IL-33 signaling (HEK-Blue cells stably transfected with the IL-36 receptor)” value was 0.324 nM, the “IC50 of IL-36α signaling (HEK-Blue cells stably transfected with the IL-36 receptor)” value amounted to 0.0557 nM, the “IC50 of IL-36β signaling (HEK-Blue cells stably transfected with the IL-36 receptor)” value is 0.161 nM and the “IC50 of IL-36γ signaling (HEK-Blue cells stably transfected with the IL-36 receptor)” value was determined as 0.088 nM. In [7], the “IC50 of IL-1α signaling (HEK-Blue assay)” value is 0.268 nM, the “IC50 of IL-1β signaling (HEK-Blue assay)” value was determined as 0.097 nM, the “IC50 of IL-33 signaling (HEK-Blue assay)” value came out at 7.51 nM and the “IC50 of IL-36α signaling (HEK-Blue assay)” value was 0.147 nM. Further, in [7], the “IC50 of IL-36β signaling (HEK-Blue assay)” value was found to be 0.169 nM and the “IC50 of IL-36γ signaling (HEK-Blue assay)” value was 0.206 nM. Besides, the Kd in test [8] came out at 2.53 nM.

B2: chimeric 48D2 (antibody, V domains shown, not shown: a dimerising Fc or GST)
VH: QEQLEESGGGLVKPGGSLTLTCTVSGPSLSHFDITWVRQAPGSGLEWIGTISPGVSTYYASWAKSRSTITSNTNLNTVTLKMTSLTAADTATYFCARGGVGSSWKAFDLWGPGTLVTISS
VL: APVLTQTPASVEVAVGGTVTIKCQASESISTALAWYQQKPGQPPKLLIYKASTLPSGVSSRFKGSGSGTEFALTISDLECDDAATYYCQQGFSSGNVHNAFGGGTEVVVKR
notes: Chimeric rabbit/human IgG1, expressed in CHO cells; also called ch48D2; 48D2 chimeric (ch) rabbit/human anti-human IL1RAP
B2: the binding result with rat IL1RAP [9] is given as “no binding (tested: 4000 ng/mL)”. In addition, the binding result with mouse IL1RAP [10] was “no binding (tested: 4000 ng/mL)”. Moreover, in test [1], the Kd turned out to be 2.67 nM, the koff came to 0.000174 s⁻¹ and the kon stood at 65200 M⁻¹ s⁻¹. Moreover, the “EC50 (read off the curve)” value in test [11] was about 6 nM. In test [12], the “IC50 of IL-1α signaling (HEK-Blue assay)” value is 1.92 nM, the “IC50 of IL-1β signaling (HEK-Blue assay)” value stood at 0.7 nM, the “IC50 of IL-33 signaling (HEK-Blue assay)” value is 2.92 nM and the “IC50 of IL-36α signaling (HEK-Blue assay)” value stood at 0.0083 nM. Moreover, in [12], the “IC50 of IL-36β signaling (HEK-Blue assay)” value amounted to 0.0081 nM and the “IC50 of IL-36γ signaling (HEK-Blue assay)” value was determined as 0.0111 nM.

The values are drawn from patent US20220242950A1 (CANTARGIA, published 2022).
